Experimental data: paper PMC10139993

T1: Fused in sarcoma (FUS) wildtype with N-terminal GFP tag, P35637
T1 chain: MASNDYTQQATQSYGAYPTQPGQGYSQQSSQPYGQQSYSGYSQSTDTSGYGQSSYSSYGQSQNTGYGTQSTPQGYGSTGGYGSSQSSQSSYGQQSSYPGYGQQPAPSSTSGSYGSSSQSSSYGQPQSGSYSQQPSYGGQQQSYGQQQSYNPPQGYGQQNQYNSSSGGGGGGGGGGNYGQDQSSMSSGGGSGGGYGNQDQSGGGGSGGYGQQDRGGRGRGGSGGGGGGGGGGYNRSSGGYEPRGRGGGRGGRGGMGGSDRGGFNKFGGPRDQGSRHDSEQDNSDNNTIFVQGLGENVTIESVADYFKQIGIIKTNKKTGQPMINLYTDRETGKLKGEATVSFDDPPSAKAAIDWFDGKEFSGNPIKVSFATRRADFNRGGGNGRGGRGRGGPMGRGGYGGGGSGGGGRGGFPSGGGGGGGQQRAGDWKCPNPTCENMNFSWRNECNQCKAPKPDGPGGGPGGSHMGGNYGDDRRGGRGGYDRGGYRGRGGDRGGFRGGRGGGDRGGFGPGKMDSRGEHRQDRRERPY


Key:
[1] = target: GFP only (eGFP expressed from the pcDNA3.1(+)-N-eGFP backbone without gene insertion); assay: single-molecule pull-down (SiMPull) with GFP photobleaching step counting; diluted NP40 lysate (1:100-1:10,000 in T50: 10 mM Tris-Cl pH 8.0, 50 mM NaCl) of transfected SH-SY5Y cells flowed over a PEG/neutravidin surface with biotinylated anti-GFP antibody; 488 nm TIRF, room temperature; photobleaching steps counted per spot; 30% dimers subtracted for GFP self-dimerisation; cells without or with 0.4 M sorbitol 4 h (also arsenite) before lysis
[2] = target: T1, Fused in sarcoma (FUS) wildtype with …; assay: single-molecule pull-down (SiMPull) with GFP photobleaching step counting; diluted NP40 lysate (1:100-1:10,000 in T50: 10 mM Tris-Cl pH 8.0, 50 mM NaCl) of transfected SH-SY5Y cells flowed over a PEG/neutravidin surface with biotinylated anti-GFP antibody; 488 nm TIRF, room temperature; photobleaching steps counted per spot; 30% dimers subtracted for GFP self-dimerisation; cells without or with 0.4 M sorbitol 4 h …; conditions: remark: other sources report otherwise

| percent dimers [1] | percent monomers [1] | average photobleaching step (after subtracting the GFP self-dimer fraction) [2] | increase in average photobleaching steps with sorbitol stress [2] | Molecule |
| --- | --- | --- | --- | --- |
| 30% | 70% |  |  | GFP only (eGFP expressed from the pcDNA3.1(+)-N-eGFP backbone without gene insertion) |
|  |  | 1.5 steps | 0.5 steps | Fused in sarcoma (FUS) wildtype with N-terminal GFP tag, P35637 1-526 (natural protein) MASNDYTQQATQSYGAYPTQPGQGYSQQSSQPYGQQSYSGYSQSTDTSGYGQSSYSSYGQSQNTGYGTQSTPQGYGSTGGYGSSQSSQSSYGQQSSYPGYGQQPAPSSTSGSYGSSSQSSSYGQPQSGSYSQQPSYGGQQQSYGQQQSYNPPQGYGQQNQYNSSSGGGGGGGGGGNYGQDQSSMSSGGGSGGGYGNQDQSGGGGSGGYGQQDRGGRGRGGSGGGGGGGGGGYNRSSGGYEPRGRGGGRGGRGGMGGSDRGGFNKFGGPRDQGSRHDSEQDNSDNNTIFVQGLGENVTIESVADYFKQIGIIKTNKKTGQPMINLYTDRETGKLKGEATVSFDDPPSAKAAIDWFDGKEFSGNPIKVSFATRRADFNRGGGNGRGGRGRGGPMGRGGYGGGGSGGGGRGGFPSGGGGGGGQQRAGDWKCPNPTCENMNFSWRNECNQCKAPKPDGPGGGPGGSHMGGNYGDDRRGGRGGYDRGGYRGRGGDRGGFRGGRGGGDRGGFGPGKMDSRGEHRQDRRERPY |
